# Source: US20060140929A1 (Merck KGaA, published 2006)
# Residue numbers refer to the chain shown, from its start. Numbers in names are those of the source.
# B1: hirudin mutein M 64 (L30G) (other)
# chain: VVYTDCTESGQNLCLCEGSVVCGQGNKCIGGSDGEKNQCVTGEGTPKPESHNDGDFEEIPEEYLQ
# B2: hirudin mutein M 13 (I29A L30Q) (other)
# chain: B1 chain with I29A, G30Q
# B3: hirudin mutein M 14 (I29A L30R) (other)
# chain: B1 chain with I29A, G30R
# B4: hirudin mutein M 19 (I29E L30K) (other)
# chain: B1 chain with I29E, G30K
# B5: hirudin mutein M 76 (P48A) (other)
# chain: B1 chain with G30L, P48A
# B6: hirudin mutein M 69 (L30Q) (other)
# chain: B1 chain with G30Q
# B7: hirudin mutein M 45 (V21K) (other)
# chain: B1 chain with V21K, G30L
# B8: hirudin mutein M 78 (D53E) (other)
# chain: B1 chain with G30L, D53E
# B9: hirudin mutein M 15 (I29A L30T) (other)
# chain: B1 chain with I29A, G30T
# B10: hirudin mutein M 39 (L15H) (other)
# chain: B1 chain with L15H, G30L
# B11: hirudin mutein M 73 (V40A) (other)
# chain: B1 chain with G30L, V40A
# B12: hirudin mutein M 11 (I29R L30R V40T) (other)
# chain: B1 chain with I29R, G30R, V40T
# B13: hirudin mutein M 32 (I29T L30A) (other)
# chain: B1 chain with I29T, G30A
# B14: hirudin mutein M 26 (I29R L30T) (other)
# chain: B1 chain with I29R, G30T
# B15: hirudin mutein M 71 (L30S) (other)
# chain: B1 chain with G30S
# B16: hirudin mutein M 34 (I29T L30Q) (other)
# chain: B1 chain with I29T, G30Q
# B17: hirudin mutein M 68 (L30P) (other)
# chain: B1 chain with G30P
# B18: hirudin mutein M 36 (I29T L30T) (other)
# chain: B1 chain with I29T, G30T
# B19: hirudin mutein M 35 (I29T L30R) (other)
# chain: B1 chain with I29T, G30R
# B20: hirudin mutein M 74 (V40T) (other)
# chain: B1 chain with G30L, V40T
# B21: hirudin mutein M 1 (I29A L30A) (other)
# chain: B1 chain with I29A, G30A
# B22: hirudin mutein M 30 (I29S L30R) (other)
# chain: B1 chain with I29S, G30R
# B23: hirudin mutein M 44 (V21H) (other)
# chain: B1 chain with V21H, G30L
# B24: hirudin mutein M 80 (D53R) (other)
# chain: B1 chain with G30L, D53R
# B25: hirudin mutein M 40 (L15Q) (other)
# chain: B1 chain with L15Q, G30L
# B26: hirudin mutein M 33 (I29T L30K) (other)
# chain: B1 chain with I29T, G30K
# B27: hirudin mutein M 25 (I29R L30R) (other)
# chain: B1 chain with I29R, G30R
# B28: hirudin mutein M 75 (K47T) (other)
# chain: B1 chain with G30L, K47T
# B29: hirudin mutein M 81 (F56H) (other)
# chain: B1 chain with G30L, F56H
# B30: hirudin mutein M 72 (L30T) (other)
# chain: B1 chain with G30T
# B31: hirudin mutein M 67 (L30N) (other)
# chain: B1 chain with G30N
# B32: hirudin mutein M 42 (V21A) (other)
# chain: B1 chain with V21A, G30L
# B33: hirudin mutein M 65 (L30H) (other)
# chain: B1 chain with G30H
# B34: hirudin mutein M 17 (I29D L30Q) (other)
# chain: B1 chain with I29D, G30Q
# B35: hirudin mutein M 23 (I29R L30K) (other)
# chain: B1 chain with I29R, G30K
# B36: hirudin mutein M 70 (L30R) (other)
# chain: B1 chain with G30R
# B37: hirudin mutein M 43 (V21G) (other)
# chain: B1 chain with V21G, G30L
# B38: hirudin mutein M 77 (P48T) (other)
# chain: B1 chain with G30L, P48T
# B39: hirudin mutein M 27 (I29S L30A) (other)
# chain: B1 chain with I29S, G30A
# B40: hirudin mutein M 12 (I29A L30K) (other)
# chain: B1 chain with I29A, G30K
# B41: hirudin mutein M 41 (L15T) (other)
# chain: B1 chain with L15T, G30L
# B42: hirudin mutein M 66 (L30K) (other)
# chain: B1 chain with G30K
# B43: hirudin mutein M 79 (D53N) (other)
# chain: B1 chain with G30L, D53N
# B44: hirudin mutein M 29 (I29S L30Q) (other)
# chain: B1 chain with I29S, G30Q
# B45: hirudin mutein M 20 (I29E L30Q) (other)
# chain: B1 chain with I29E, G30Q
# B46: hirudin mutein M 24 (I29R L30Q) (other)
# chain: B1 chain with I29R, G30Q
# B47: hirudin mutein M 21 (I29E L30R) (other)
# chain: B1 chain with I29E, G30R
# B48: hirudin mutein M 2 (I29R L30H) (other)
# chain: B1 chain with I29R, G30H
# B49: hirudin mutein M 28 (I29S L30K) (other)
# chain: B1 chain with I29S, G30K
# B50: hirudin mutein M 22 (I29E L30T) (other)
# chain: B1 chain with I29E, G30T
# B51: hirudin mutein M 16 (I29D L30A) (other)
# chain: B1 chain with I29D, G30A
# B52: hirudin mutein M 31 (I29S L30T) (other)
# chain: B1 chain with I29S, G30T
# Target: thrombin
# Experiment: cell-based or functional assay
row,Binder,"Relative Activity (ratio of variant IC50/WT IC50), chromogenic thrombin inhibition assay [ratio]"
1,B1,2.2
2,B2,1.6
3,B3,2.7
4,B4,1.1
5,B5,1
6,B6,1
7,B7,0.9
8,B8,1
9,B9,1.21
10,B10,0.65
11,B11,1
12,B12,0.7
13,B13,1.67
14,B14,1
15,B15,1.83
16,B16,2.4
17,B17,1.83
18,B18,1.8
19,B19,2.3
20,B20,1
21,B21,1.4
22,B22,2.5
23,B23,0.74
24,B24,1
25,B25,0.34
26,B26,1.6

row,Binder,"Relative Activity (ratio of variant IC50/WT IC50), chromogenic thrombin inhibition assay [ratio]"
1,B27,1
2,B28,2.2
3,B29,0.8
4,B30,1
5,B31,1.54
6,B32,0.93
7,B33,1
8,B34,2
9,B35,0.93
10,B36,1
11,B37,1
12,B38,1
13,B39,1.34
14,B40,1.45
15,B41,0.4
16,B42,1
17,B43,1
18,B44,2
19,B45,1.52
20,B46,1
21,B47,1.21
22,B48,1.2
23,B49,1.5
24,B50,1.8
25,B51,1.6
26,B52,1.1
